One assay has as its target T1, Nop1^83–321 (S. cerevisiae, UniProt P15646 83-321).
T1 sequence (looked up): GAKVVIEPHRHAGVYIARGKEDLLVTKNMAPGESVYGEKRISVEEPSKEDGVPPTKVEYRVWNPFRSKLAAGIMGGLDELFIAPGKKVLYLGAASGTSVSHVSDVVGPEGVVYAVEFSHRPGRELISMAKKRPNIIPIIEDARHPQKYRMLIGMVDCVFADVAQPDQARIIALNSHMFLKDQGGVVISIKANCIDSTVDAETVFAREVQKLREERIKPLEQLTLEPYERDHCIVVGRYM
As to the kind of experiment: SEC. A general note: SEC sorts molecules by how far they enter the pores of the column.

Another assay addresses T2, Sc Nop1^83–327 (S. cerevisiae, UniProt P15646 83-327).
T2 sequence (looked up): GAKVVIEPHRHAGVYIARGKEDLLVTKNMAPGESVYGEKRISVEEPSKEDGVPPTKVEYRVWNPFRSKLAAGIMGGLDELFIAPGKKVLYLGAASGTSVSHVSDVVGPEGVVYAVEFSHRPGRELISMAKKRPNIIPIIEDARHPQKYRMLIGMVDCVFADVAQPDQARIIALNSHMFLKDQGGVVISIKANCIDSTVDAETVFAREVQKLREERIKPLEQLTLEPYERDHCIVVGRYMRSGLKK
Description: SEC.

B1: Sc Nop56^1–166 (domain or fragment, S. cerevisiae, UniProt Q12460 1-166, looked up)
chain: MAPIEYLLFEEPTGYAVFKVKLQQDDIGSRLKEVQEQINDFGAFTKLIELVSFAPFKGAAEALENANDISEGLVSESLKAILDLNLPKASSKKKNITLAISDKNLGPSIKEEFPYVDCISNELAQDLIRGVRLHGEKLFKGLQSGDLERAQLGLGHAYSRAKVKFS
Regarding B1, in the assay with Nop1^83–321, the binding result is “binds”.

B2: Nop56^1–166-Q35A/N39A (domain or fragment, S. cerevisiae, UniProt Q12460 1-166, looked up)
chain: MAPIEYLLFEEPTGYAVFKVKLQQDDIGSRLKEVAEQIADFGAFTKLIELVSFAPFKGAAEALENANDISEGLVSESLKAILDLNLPKASSKKKNITLAISDKNLGPSIKEEFPYVDCISNELAQDLIRGVRLHGEKLFKGLQSGDLERAQLGLGHAYSRAKVKFS
Turning to B2, the binding result with Sc Nop1^83–327 is given as “binds”.

B3: Sc Nop56^1–166-L147W/E148F (domain or fragment, S. cerevisiae, UniProt Q12460 1-166, looked up)
chain: MAPIEYLLFEEPTGYAVFKVKLQQDDIGSRLKEVQEQINDFGAFTKLIELVSFAPFKGAAEALENANDISEGLVSESLKAILDLNLPKASSKKKNITLAISDKNLGPSIKEEFPYVDCISNELAQDLIRGVRLHGEKLFKGLQSGDWFRAQLGLGHAYSRAKVKFS
As to B3, in the assay with Sc Nop1^83–327, the binding result is listed as “binds”.

Source of the values: paper PMC7962484 (RNA, 2021).
